Source: patent publication US20260109773A1 (HARPOON THERAPEUTICS, published 2026)

T1: human BCMA protein (human, UniProt Q02223 1-54, limits assumed)
T1 sequence: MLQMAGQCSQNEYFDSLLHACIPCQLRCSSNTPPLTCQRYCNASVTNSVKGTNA

B1: 253BH10 trispecific protein (other, not shown: large carriers)
chain: QVQLVESGGGLVQPGESLRLSCAASTNIFSISPMGWYRQAPGKQRELVAAIHGFSTLYADSVKGRFTISRDNAKNTIYLQMNSLKPEDTAVYYCNKVPWGDYHPRNVYWGQGTQVTVSS
notes: also called molecule with the parental CDRs
B2: cynomolgus CD3ε-Fc (Fc fusion, UniProt Q95LI5 22-117, looked up)
chain: QDGNEEMGSITQTPYQVSISGTTVILTCSQHLGSEAQWQHNGKNKEDSGDRLFLPEFSEMEQSGYYVCYPRGSNPEDASHHLYLKARVCENCMEMD
notes: loaded on streptavidin tips; not shown: Fc part
B3: human CD3ε-Fc (Fc fusion, UniProt P07766 23-126, looked up)
chain: DGNEEMGGITQTPYKVSISGTTVILTCPQYPGSEILWQHNDKNIGGDEDDKNIGSDEDHLSLKEFSELEQSGYYVCYPRGSKPEDANFYLYLRARVCENCMEMD
notes: as for B2
B4: cynomolgus serum albumin (other, UniProt A2V9Z4 25-608, looked up)
chain: DTHKSEVAHRFKDLGEEHFKGLVLVAFSQYLQQCPFEEHVKLVNEVTEFAKTCVADESAENCDKSLHTLFGDKLCTVATLRETYGEMADCCAKQEPERNECFLQHKDDNPNLPPLVRPEVDVMCTAFHDNEATFLKKYLYEVARRHPYFYAPELLFFAARYKAAFAECCQAADKAACLLPKLDELRDEGKASSAKQRLKCASLQKFGDRAFKAWAVARLSQKFPKAEFAEVSKLVTDLTKVHTECCHGDLLECADDRADLAKYMCENQDSISSKLKECCDKPLLEKSHCLAEVENDEMPADLPSLAADYVESKDVCKNYAEAKDVFLGMFLYEYARRHPDYSVMLLLRLAKAYEATLEKCCAAADPHECYAKVFDEFQPLVEEPQNLVKQNCELFEQLGEYKFQNALLVRYTKKVPQVSTPTLVEVSRNLGKVGAKCCKLPEAKRMPCAEDYLSVVLNRLCVLHEKTPVSEKVTKCCTESLVNRRPCFSALELDEAYVPKAFNAETFTFHADMCTLSEKEKQVKKQTALVELVKHKPKATKEQLKGVMDNFAAFVEKCCKADDKEACFAEEGPKFVAASQAALA
notes: loaded on streptavidin tips
B5: human BCMA on BCMA-expressing cell lines (receptor)
chain: MLQMAGQCSQNEYFDSLLHACIPCQLRCSSNTPPLTCQRYCNASVTNSVKGTNAILWTCLGLSLIISLAVFVLMFLLRKINSEPLKDEFKNTGSGLLGMANIDLEKSRTGDEIILPRGLEYTVEECTCEDCIKSKPKVDSDHCFPLPAMEEGATILVTTKTNDYCKSLPAALSATEIEKSISAR
notes: BCMA as expressed by human tumour cell lines; also called BCMA expressing cells (EJM, Jeko1, MOLP-8, OPM-2, NCI-H929, RPMI-8226)

Key:
[1] = biological target: B5; test: cell-based or functional assay
human BCMA protein = biological target: T1, human BCMA protein; test: affinity to human BCMA protein; method not stated
02B05 TriTAC [2] = biological target: T2, 02B05 TriTAC; test: Octet; 2.5 nM cynomolgus CD3ε-Fc on streptavidin tips; 15 mg/ml HSA; n=2
T2 construct: TriTAC trispecific; His6 in entry; also called exemplary BCMA targeting trispecific protein (02B05)
Procedure: (§1) The affinities were measured using an Octet instrument. For these measurements, streptavidin tips were first loaded with 2.5 nM human BCMA-Fc, 2.5 nM cynomolgous BCMA-Fc, 2.5 nM human CD3ε-Fc, 2.5 nM cynomolgus CD3ε-Fc, 50 nM human serum albumin (HSA), 50 nM cynomolgus serum albumin, or 50 nM mouse serum albumin. […] Average calculated KD values from these studies are provided in Table 4 (n indicates the number of independent measurements, n/d indicates no binding detected under the conditions tested).

02B05 TriTAC [3] = biological target: T2, 02B05 TriTAC; test: Octet; 2.5 nM human CD3ε-Fc on streptavidin tips; 15 mg/ml HSA; n=2
Procedure: as §1

02B05 TriTAC [4] = biological target: T2, 02B05 TriTAC; test: Octet; 50 nM cynomolgus serum albumin on streptavidin tips; n=1
Procedure: as §1

02B05 TriTAC [5] = biological target: T2, 02B05 TriTAC; test: flow cytometry on NCI-H929 cells (BCMA RNA FPKM 1931); bound protein detected with an Alexa Fluor 647 antibody against the anti-albumin domain; negative control: GFP trispecific protein

T2 sequence (chain, as listed by the source): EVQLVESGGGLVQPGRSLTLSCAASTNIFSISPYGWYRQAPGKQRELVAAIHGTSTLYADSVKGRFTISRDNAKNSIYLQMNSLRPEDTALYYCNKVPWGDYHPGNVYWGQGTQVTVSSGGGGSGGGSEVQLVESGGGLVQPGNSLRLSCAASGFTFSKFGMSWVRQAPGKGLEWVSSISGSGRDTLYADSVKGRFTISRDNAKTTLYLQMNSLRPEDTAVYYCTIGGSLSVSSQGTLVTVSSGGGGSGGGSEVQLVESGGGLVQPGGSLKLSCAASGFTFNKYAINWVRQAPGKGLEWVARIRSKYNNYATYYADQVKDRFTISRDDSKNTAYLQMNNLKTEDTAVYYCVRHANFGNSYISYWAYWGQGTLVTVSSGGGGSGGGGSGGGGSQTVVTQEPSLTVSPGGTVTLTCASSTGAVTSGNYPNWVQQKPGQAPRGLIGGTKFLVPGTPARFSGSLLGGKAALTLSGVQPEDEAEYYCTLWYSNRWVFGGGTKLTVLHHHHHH

Binder: B1
TDCC EC50, EJM cells [1]: 0.0529 nM
Kd (human BCMA protein): 27.7 nM

Binder: B2
Kd (02B05 TriTAC [2]): 7.8 nM

Binder: B3
Kd (02B05 TriTAC [3]): 8 nM

Binder: B4
Kd (02B05 TriTAC [4]): 7.5 nM

Binder: B5
binding result (02B05 TriTAC [5]): binds
